The values that follow come from patent US20220348970A1, “METHODS AND COMPOSITIONS FOR 3-HYDROXYPROPIONATE PRODUCTION” (The Regents of the University of California, priority 2017, published 2022).

Data set [1] has as its target Actinobacillus succinogenes PCK (phosphoenolpyruvate carboxykinase), SEQ ID NO: 163 (Actinobacillus succinogenes, UniProt A6VKV4). The experiment in a line: Kinetics of PEPCK against PEP (carboxylation direction, malate dehydrogenase/NADH coupled). The format is biochemical. To be noted: 100 mM PBS buffer (pH 6.5), 1.25 mM ADP, 50 mM KHCO3, 2 mM MnCl2. The method, then:
(§1) 5 genes encoding candidate PEPCKs were synthesized and cloned into expression vectors. After obtaining solubly expressed proteins, they were used for activity characterization. Each enzyme was assayed in the phosphenolpyruvate carboxylation direction in a solution containing 100 mM PBS buffer (pH 6.5), 0.20 mM NADH, 1.25 mM ADP, 2.5 mM PEP, 50 mM KHCO3, 2 mM MnCl2, and 4 units malate dehydrogenase.

Substrate in data set [2]: NC(=O)c1ccc[n+]([C@@H]2O[C@H](COP(=O)([O-])OP(=O)(O)OC[C@H]3O[C@@H](n4cnc5c(N)ncnc54)[C@H](O)[C@@H]3O)[C@@H](O)[C@H]2O)c1
The experiment in a line: 3-HPDH activity towards 3-HP (reverse reaction) using NAD+. The format is biochemical. The conditions noted are these: other: activity towards 3-HP, pH 7.2, 21° C. How it is done:
(§2) Candidate ADHs were expressed in E. coli, and soluble expression levels were analyzed. 3-HP dehydrogenase (3-HPDH) activity of each was tested based on the reverse reaction, from 3-HP to 3-oxopropanoate. The assay was performed in a 96-well half-area plate. Each reaction contained a final concentration of 1 mM NADP^+/NAD^+ in reaction buffer (100 mM Hepes, 100 mM NaCl, 10% glycerol, pH 7.2) and ADHs. A range of substrates from 0.1 mM-5 mM was used to perform steady-state kinetics measurement over a period of an hour. Absorbance readings were taken every 1 min at OD 340 at 21° C. for 60 min. using the Synergy™ H1 Hybrid Multi-Mode Microplate Reader (Biotek). Kinetic parameters (kcat and KM) were determined by fitting initial velocity versus substrate concentration data to the Michaelis-Menten equation.

Substrate in data set [3]: NC(=O)c1ccc[n+]([C@@H]2O[C@H](COP(=O)([O-])OP(=O)(O)OC[C@H]3O[C@@H](n4cnc5c(N)ncnc54)[C@H](O)[C@@H]3O)[C@@H](O)[C@H]2O)c1
Described as above. Type of data set: biochemical, Metallosphaera sedula. To be noted: other: activity towards 3-HP, pH 7.2, 21° C. How it is done:
as §2

Substrate in data set [4]: O=C(O)CC(=O)C(=O)O
The experiment in a line: OAADC kinetics of 5EUJ on oxaloacetate. Type of data set: biochemical. To be noted: other: oxaloacetate, pH 7.2, 21° C. The method, then:
(§3) All substrates were dissolved in MilliQ H2O and the pH was adjusted to 7.2 as necessary. Activity for oxaloacetate, pyruvate, and 2-ketoisovalerate was measured at a 1 mM substrate concentration. The assay was performed in a 96-well half-area plate. Each reaction contained reaction buffer (100 mM HEPES, 100 mM NaCl, 10% glycerol, pH 7.2), ADH (Sigma-Aldrich, A7011, 100 U/mL for pyruvate, 600 U/mL for oxaloacetate, and 600 U/mL for 2-ketoisovalerate), and a final concentration of 0.5 mM NADPH, 0.1 mM TPP, and 1 mM MgSO4. A range of substrate concentrations (0.1 mM-5 mM) were uSEQ to perform steady-state kinetics measurement over a period of one hour. Absorbance readings were taken at one minute intervals at 340 nm at 21° C. for 60 minutes using the Synergy H1 spectrophotometer (Biotek). Kinetic parameters (ka and Ks1) were determined by fitting initial velocity versus substrate concentration data to the Michaelis-Menten equation.
(§4) A second round of genome mining was conducted as described in Example 1, except using the 4COK sequence as the input. Genes encoding candidate OAADCs were synthesized and expressed in E. coli for further characterization. OAADC activity was assayed as described in Example 1.

Substrate in data set [5]: O=C(O)CC(=O)C(=O)O
The experiment in a line: OAADC kinetics of A0A0J7KM68 on oxaloacetate. The format is biochemical. To be noted: other: oxaloacetate, pH 7.2, 21° C. How it is done: as §3, §4

Substrate in data set [6]: C=C(OP(=O)(O)O)C(=O)O
The data set can be described thus: Kinetics of PEPCK against PEP (carboxylation direction, malate dehydrogenase/NADH coupled). The format is biochemical, E. coli. The conditions noted are these: other: PEP, 100 mM PBS buffer (pH 6.5), 1.25 mM ADP, 50 mM KHCO3, 2 mM MnCl2. The method, then: as §1

Substrate in data set [7]: CC(=O)C(=O)O
The data set can be described thus: Steady-state kinetics of 4COK decarboxylase on pyruvate and oxaloacetate (ADH/NADPH coupled, 340 nm). The conditions noted are these: other: pH 7.2, 21° C., 0.1 mM-5 mM substrate. The format is biochemical, Gluconacetobacter diazotrophicus. How it is done: Overnight cultures of BLR cells suspended in a 2 mL volume were transformed with a pet29b+ plasmid (encoding polypeptides of interest with a C-terminal His-tag) and grown in Terrific Broth with 50 μg/ml kanamycin. Cultures were diluted 1:1.000 in 500 ml of Terrific Broth with 1 mM MgSO4, 1% glucose and 50 μg/ml antibiotic and then grown at 37° C. for 24 hours. Cultures were pelleted down at 4,700 RPM for 10 minutes and resuspended in auto-induction media (LB broth, 1 mM MgSO4, 0.1 mM TPP, 1×NPS and 1×5052) for induction at 18° C. for 20 hours. At the end of induction, cells were centrifuged, the supernatant was removed and cells were resuspended in 40 mL lysis buffer (100 mM HEPES, pH 7.5, 100 mM NaCl, 10% glycerol, 0.1 mM TPP, 1 mM MgSO4, 10 mM Imidazole, 1 mM TCEP) and 1 mM phenylmethylsulphonyl fluoride. The cell lysate suspension was sonicated for 2 min and followed by centrifugation at 4,700 RPM. The supernatant was loaded onto a gravity flow column with 500 uL Cobalt beads and was washed with 15 mL of wash buffer five times. Proteins were eluted with […] of elution buffer (100 mM HEPES, pH 7.5, 100 mM NaCl, 10% glycerol, 0.1 mM TPP, 1 mM MgSO4, 200 mM Imidazole and 1 mM TCEP). Protein concentrations were determined using a Synergy H1 spectrophotometer (Biotek) by measuring absorbance at 280 nm using calculated extinction coefficients.
All substrates were dissolved in MilliQ H2O and the pH was adjusted to 7.2 as necessary. Activity for oxaloacetate, pyruvate, and 2-ketoisovalerate was measured at a 1 mM substrate concentration. The assay was performed in a 96-well half-area plate. […] Absorbance readings were taken at one minute intervals at 340 nm at 21° C. for 60 minutes using the Synergy H1 spectrophotometer (Biotek). Kinetic parameters (ka and Ks1) were determined by fitting initial velocity versus substrate concentration data to the Michaelis-Menten equation. […]

Actinobacillus succinogenes PCK (phosphoenolpyruvate carboxykinase), SEQ ID NO: 163, sequence (A6VKV4 whole entry): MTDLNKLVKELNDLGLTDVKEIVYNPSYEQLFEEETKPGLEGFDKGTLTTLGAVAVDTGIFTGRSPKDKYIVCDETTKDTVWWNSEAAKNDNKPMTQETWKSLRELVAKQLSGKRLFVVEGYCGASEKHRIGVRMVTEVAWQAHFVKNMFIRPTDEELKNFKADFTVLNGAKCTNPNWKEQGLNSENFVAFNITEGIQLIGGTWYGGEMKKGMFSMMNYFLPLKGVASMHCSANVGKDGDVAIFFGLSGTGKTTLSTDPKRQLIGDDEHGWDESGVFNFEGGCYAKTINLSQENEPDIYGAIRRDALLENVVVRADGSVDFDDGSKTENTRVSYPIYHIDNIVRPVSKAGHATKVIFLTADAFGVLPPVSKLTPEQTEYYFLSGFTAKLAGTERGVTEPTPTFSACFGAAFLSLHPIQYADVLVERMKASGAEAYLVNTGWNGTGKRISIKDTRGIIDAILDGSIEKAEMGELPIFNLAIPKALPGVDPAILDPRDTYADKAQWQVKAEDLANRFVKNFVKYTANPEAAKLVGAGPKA

For `C=C(OP(=O)(O)O)C(=O)O` [PEP, phosphoenolpyruvate], in data set [1], the Km stood at 169 µM and the kcat is 2.875 s⁻¹.

B1: 3-HPDH 2CVZ, SEQ ID NO: 159 (Thermus thermophilus HB8) (protein)
chain: MEKVAFIGLGAMGYPMAGHLARRFPTLVWNRTFEKALRHQEEFGSEAVPLERVAEARVIFTCLPTTREVYEVAEALYPYLREGTYWVDATSGEPEASRRLAERLREKGVTYLDAPVSGGTSGAEAGTLTVMLGGPEEAVERVRPFLAYAKKVVHVGPVGAGHAVKAINNALLAVNLWAAGEGLLALVKQGVSAEKALEVINASSGRSNATENLIPQRVLTRAFPKTFALGLLVKDLGIAMGVLDGEKAPSPLLRLAREVYEMAKRELGPDADHVEALRLLERWGGVEIR
notes: PDB 2CVZ is from strain HB8 (ATCC 27634 / DSM 579)
As for B1, in data set [2], the Km stood at 420 µM.

B2: 3-HPDH A4YI81, SEQ ID NO: 154 (Metallosphaera sedula DSM 5348) (protein)
chain: MTEKVSVVGAGVIGVGWATLFASKGYSVSLYTEKKETLDKGIEKLRNYVQVMKNNSQITEDVNTVISRVSPTTNLDEAVRGANFVIEAVIEDYDAKKKIFGYLDSVLDKEVILASSTSGLLITEVQKAMSKHPERAVIAHPWNPPHLLPLVEIVPGEKTSMEVVERTKSLMEKLDRIVVVLKKEIPGFIGNRLAFALFREAVYLVDEGVATVEDIDKVMTAAIGLRWAFMGPFLTYHLGGGEGGLEYFFNRGFGYGANEWMHTLAKYDKFPYTGVTKAIQQMKEYSFIKGKTFQEISKWRDEKLLKVYKLVWEK
notes: UniProt strain ATCC 51363 / DSM 5348 / TH2
Consider B2, for which the Km in data set [3] came out at 650 µM.

B3: OAADC 5EUJ, SEQ ID NO: 146 (Zymobacter palmae) (protein)
chain: MYTVGMYLAERLAQIGLKHHFAVAGDYNLVLLDQLLLNKDMEQVYCCNELNCGFSAEGYARARGAAAAIVTFSVGAISAMNAIGGAYAENLPVILISGSPNTNDYGTGHILHHTIGTTDYNYQLEMVKHVTCAAESIVSAEEAPAKIDHVIRTALRERKPAYLEIACNVAGAECVRPGPINSLLRELEVDQTSVTAAVDAAVEWLQDRQNVVMLVGSKLRAAAAEKQAVALADRLGCAVTIMAAAKGFFPEDHPNFRGLYWGEVSSEGAQELVENADAILCLAPVFNDYATVGWNSWPKGDNVMVMDTDRVTFAGQSFEGLSLSTFAAALAEKAPSRPATTQGTQAPVLGIEAAEPNAPLTNDEMTRQIQSLITSDTTLTAETGDSWFNASRMPIPGGARVELEMQWGHIGWSVPSAFGNAVGSPERRHIMMVGDGSFQLTAQEVAQMIRYEIPVIIFLINNRGYVIEIAIHDGPYNYIKNWNYAGLIDVFNDEDGHGLGLKASTGAELEGAIKKALDNRRGPTLIECNIAQDDCTETLIAWGKRVAATNSRKPQAGGSG
Turning to B3, in data set [4], the Km is 6667 µM, the catalytic constant (kcat) is 28.8 s⁻¹ and the specificity constant (kcat/Km) came to 4320 ± 321 M⁻¹ s⁻¹.

B4: OAADC A0A0J7KM68_LASNI, SEQ ID NO: 145 (Lasius niger) (protein)
chain: MSYTVGQYLADRLVQIGLKDHFAIAGDYNLVLLDQFLKNKNWNQIYDCNELNCGFAAEGYARANGAAACVVTYTVGAISAMNSALAGAYAENLPVLCISGAPNCNDYGSGRILHHTIGKPEFTQQLDMVKHVTCAAESVVQASEAPAKIDHVIRTMLLEQRPAYIDIACNISGLECPRPGPIEDLLPQYAADNKSLTSAIDAIAKKIEASQKVTLYVGPKVRPGKAKEASVKLADALGCAVTVGPASMSFFPAKHPGFRGTYWGIVSTGDANKVVEEAETLIVLGPNWNDYATVGWKAWPKGPRVVTIDEKAAQVDGQVFSGLSMKALVEGLAKKVSKKPATAEGTKAPHFEYPVAKPDAKLTNAEMARQINAILDDNTTLHAETGDSWFNVKNMNWPNGLRIESEMQYGHIGWSIPSGFGGAIGSPERKHIIMCGDGSFQLTCQEVSQMIRYKLPVTIFLIDNHGYGIEIAIHDGPYNYIQNWNFTKLMEVFNGEGEECPYSHNKNGKSGLGLKATTPAELADAIKQAEANKEGPTLIQVVIDQDDCTKDLLTWGKEVAKTNARSPVVTDKAGGSG
As to B4, in data set [5], the Km came out at 2389 µM, the kcat came to 6.25 s⁻¹ and the kcat/Km stood at 2620 ± 224 M⁻¹ s⁻¹.

B5: E. coli PCK (phosphoenolpyruvate carboxykinase, PCKA_Ecoli), SEQ ID NO: 162 (Escherichia coli K-12) (protein)
chain: MRVNNGLTPQELEAYGISDVHDIVYNPSYDLLYQEELDPSLTGYERGVLTNLGAVAVDTGIFTGRSPKDKYIVRDDTTRDTFWWADKGKGKNDNKPLSPETWQHLKGLVTRQLSGKRLFVVDAFCGANPDTRLSVRFITEVAWQAHFVKNMFIRPSDEELAGFKPDFIVMNGAKCTNPQWKEQGLNSENFVAFNLTERMQLIGGTWYGGEMKKGMFSMMNYLLPLKGIASMHCSANVGEKGDVAVFFGLSGTGKTTLSTDPKRRLIGDDEHGWDDDGVFNFEGGCYAKTIKLSKEAEPEIYNAIRRDALLENVTVREDGTIDFDDGSKTENTRVSYPIYHIDNIVKPVSKAGHATKVIFLTADAFGVLPPVSRLTADQTQYHFLSGFTAKLAGTERGITEPTPTFSACFGAAFLSLHPTQYAEVLVKRMQAAGAQAYLVNTGWNGTGKRISIKDTRAIIDAILNGSLDNAETFTLPMFNLAIPTELPGVDTKILDPRNTYASPEQWQEKAETLAKLFIDNFDKYTDTPAGAALVAAGPKL
Take B5: in data set [6], the Km worked out at 190.5 µM, the turnover number (kcat) worked out at 3.42 s⁻¹ and the kcat/Km amounted to 18000 M⁻¹ s⁻¹.

B6: pyruvate decarboxylase from Gluconacetobacter diazotrophicus (4COK), SEQ ID NO: 1 (Gluconacetobacter diazotrophicus PA1 5) (protein)
chain: MTYTVGRYLADRLAQIGLKHHFAVAGDYNLVLLDQLLLNTDMQQIYCSNELNCGFSAEGYARANGAAAAIVTFSVGALSAFNALGGAYAENLPVILISGAPNANDHGTGHILHHTLGTTDYGYQLEMARHITCAAESIVAAEDAPAKIDHVIRTALREKKPAYLEIACNVAGAPCVRPGGIDALLSPPAPDEASLKAAVDAALAFIEQRGSVTMLVGSRIRAAGAQAQAVALADALGCAVTTMAAAKSFFPEDHPGYRGHYWGEVSSPGAQQAVEGADGVICLAPVFNDYATVGWSAWPKGDNVMLVERHAVTVGGVAYAGIDMRDFLTRLAAHTVRRDATARGGAYVTPQTPAAAPTAPLNNAEMARQIGALLTPRTTLTAETGDSWFNAVRMKLPHGARVELEMQWGHIGWSVPAAFGNALAAPERQHVLMVGDGSFQLTAQEVAQMIRHDLPVIIFLINNHGYTIEVMIHDGPYNNVKNWDYAGLMEVFNAGEGNGLGLRARTGGELAAAIEQARANRNGPTLIECTLDRDDCTQELVTWGKRVAAANARPPRAG
notes: likely strain PAl 5 (ATCC 49037 / DSM 5601)
On to B6, for which, in data set [7], the Michaelis constant (Km) worked out at 1490 ± 430 µM, the kcat worked out at 8.25 ± 1.87 s⁻¹ and the kcat/Km is 5532 ± 39.4 M⁻¹ s⁻¹.

What is called Km is the substrate concentration at which the rate is half of its maximum. The kcat is the maximal rate divided by the concentration of active sites. As a reminder, the kcat/Km is the turnover number divided by the Michaelis constant.
